First the molecules themselves.
B1: glmS ribozyme (parent)
chain: AUAAAAGCGCCAGAACUACAGAAAUGUAGUUGACGAGGAGGAGGUUUAUCGAAUUUUCGGCGGAUGCCUCCAAA

What all share (conditions): with glucosamine-6-phosphate
Data set [1] covers variants of B1. In words: kcat; higher = faster cleavage; RNA array. In short, it runs like this: (§1)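 Weighted Michaelis–Menten fits across concentrations supplied kcat and KM, based on kobs from one- or two-exponential decay fits to normalised per-tile medians. The data came from barcoded ribozyme variants transcribed in situ by E. coli RNA polymerase on sequenced MiSeq chips and tracked at 37 °C by a hybridised Cy3 probe. Glucosamine-6-phosphate (40 μM to 10 mM) in HEPES/KCl/Mg(OAc)2 buffer was flowed in.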

Data set [2] covers variants of B1. In words: self-cleavage kobs at 40 uM GlcN6P; higher = faster cleavage; RNA array. In short, it runs like this:
as §1

Data set [3] covers variants of B1. In words: self-cleavage kobs at 640 uM GlcN6P; higher = faster cleavage; RNA array. In short, it runs like this: as §1
The variants in data set [4] derive from B1. In words: self-cleavage kobs at 2500 uM GlcN6P; higher = faster cleavage; RNA array. In short, it runs like this: as §1
The variants in data set [5] derive from B1. In words: KM; higher = weaker cofactor use; RNA array. In short, it runs like this:
as §1

Variants of B1 are the subject of data set [6]. In words: self-cleavage kobs at 10000 uM GlcN6P; higher = faster cleavage; RNA array. The method in brief:
as §1

The variants in data set [7] derive from B1. In words: self-cleavage kobs at 160 uM GlcN6P; higher = faster cleavage; RNA array. The method in brief:
as §1

± gives the standard error. For part of these data: This sample holds only a part of the variants without activity.

As a reminder, the kcat is the maximal rate divided by the concentration of active sites. With G37C G38U, in data set [1], the catalytic constant (kcat) is less than 1e-05 s⁻¹. Further, the “self-cleavage kobs at 40 uM GlcN6P” value in data set [2] was less than 1e-05 s⁻¹. For the same variant, in data set [3], the “self-cleavage kobs at 640 uM GlcN6P” value is less than 1e-05 s⁻¹. Moreover, the “self-cleavage kobs at 2500 uM GlcN6P” value in data set [4] was less than 1e-05 s⁻¹.
One may read the KM as the substrate concentration at which the rate is half of its maximum. Consider A15C C58U, for which, in data set [1], the kcat was 3.18e-05 ± 2.2e-06 s⁻¹. Also, the KM in data set [5] was found to be 214 ± 97 µM. Also, the “self-cleavage kobs at 2500 uM GlcN6P” value in data set [4] came to 2.9e-05 ± 1.1e-05 s⁻¹.
In the case of U30A U47G, in data set [1], the kcat worked out at 0.000918 ± 0.00028 s⁻¹. Further, in data set [2], the “self-cleavage kobs at 40 uM GlcN6P” value stood at 7.81e-05 ± 2.4e-05 s⁻¹. Moreover, in data set [3], the “self-cleavage kobs at 640 uM GlcN6P” value is 0.000406 ± 8.6e-05 s⁻¹. For the same variant, the “self-cleavage kobs at 2500 uM GlcN6P” value in data set [4] worked out at 0.000481 ± 0.00024 s⁻¹. In data set [6], the “self-cleavage kobs at 10000 uM GlcN6P” value was 0.00109 ± 0.00021 s⁻¹.
Consider A48C U55C, for which the catalytic constant (kcat) in data set [1] stood at 0.000419 ± 0.00015 s⁻¹. In addition, the “self-cleavage kobs at 640 uM GlcN6P” value in data set [3] came out at 6.73e-05 ± 1.2e-05 s⁻¹. In data set [4], the “self-cleavage kobs at 2500 uM GlcN6P” value stood at 0.000327 ± 4.9e-05 s⁻¹. Besides, the “self-cleavage kobs at 10000 uM GlcN6P” value in data set [6] was 0.00029 ± 4.9e-05 s⁻¹.
As for C10A U30C A53G C67A, the kcat in data set [1] stood at 1.94e-05 ± 4e-06 s⁻¹.
G7U G38C: in data set [1], the catalytic constant (kcat) is less than 1e-05 s⁻¹. The “self-cleavage kobs at 40 uM GlcN6P” value in data set [2] was less than 1e-05 s⁻¹. The “self-cleavage kobs at 640 uM GlcN6P” value in data set [3] was less than 1e-05 s⁻¹. In addition, the “self-cleavage kobs at 10000 uM GlcN6P” value in data set [6] is less than 1e-05 s⁻¹.
With A14C U54G, in data set [1], the catalytic constant (kcat) is 0.00619 ± 0.0017 s⁻¹. Also, the KM in data set [5] was determined as 3310 ± 1300 µM. Moreover, in data set [2], the “self-cleavage kobs at 40 uM GlcN6P” value was 0.00011 ± 1.7e-05 s⁻¹. The “self-cleavage kobs at 160 uM GlcN6P” value in data set [7] came out at 0.000219 ± 3.6e-05 s⁻¹. For the same variant, the “self-cleavage kobs at 640 uM GlcN6P” value in data set [3] was determined as 0.00107 ± 0.00016 s⁻¹. Moreover, in data set [4], the “self-cleavage kobs at 2500 uM GlcN6P” value came out at 0.00296 ± 0.00041 s⁻¹. The “self-cleavage kobs at 10000 uM GlcN6P” value in data set [6] was found to be 0.00448 ± 0.00056 s⁻¹.
In the case of G37U A52G, the kcat in data set [1] is less than 1e-05 s⁻¹. Moreover, in data set [2], the “self-cleavage kobs at 40 uM GlcN6P” value was less than 1e-05 s⁻¹. Also, the “self-cleavage kobs at 640 uM GlcN6P” value in data set [3] was less than 1e-05 s⁻¹.
On to G29A U56C, for which the kcat in data set [1] stood at 0.000719 ± 0.00026 s⁻¹. The “self-cleavage kobs at 160 uM GlcN6P” value in data set [7] turned out to be 3.68e-05 ± 1.1e-05 s⁻¹. Further, the “self-cleavage kobs at 640 uM GlcN6P” value in data set [3] was 0.000156 ± 2.2e-05 s⁻¹. In data set [4], the “self-cleavage kobs at 2500 uM GlcN6P” value was determined as 0.000226 ± 3.3e-05 s⁻¹. Besides, in data set [6], the “self-cleavage kobs at 10000 uM GlcN6P” value came out at 0.000619 ± 6.7e-05 s⁻¹.
For U30A G41U, in data set [1], the turnover number (kcat) is 0.000138 ± 2.1e-05 s⁻¹. The KM in data set [5] came out at 608 ± 300 µM. Besides, the “self-cleavage kobs at 640 uM GlcN6P” value in data set [3] stood at 6.73e-05 ± 9.9e-06 s⁻¹. For the same variant, the “self-cleavage kobs at 2500 uM GlcN6P” value in data set [4] worked out at 0.000147 ± 1.8e-05 s⁻¹. Besides, the “self-cleavage kobs at 10000 uM GlcN6P” value in data set [6] was found to be 0.000117 ± 1.4e-05 s⁻¹.
Take A52G U56A: the kcat in data set [1] was found to be 0.00139 ± 0.00027 s⁻¹. Besides, in data set [5], the KM was found to be 4470 ± 1300 µM. Besides, the “self-cleavage kobs at 160 uM GlcN6P” value in data set [7] was determined as 6.31e-05 ± 1.3e-05 s⁻¹. For the same variant, the “self-cleavage kobs at 640 uM GlcN6P” value in data set [3] was 0.000166 ± 2.9e-05 s⁻¹. In addition, the “self-cleavage kobs at 2500 uM GlcN6P” value in data set [4] was 0.000441 ± 7.1e-05 s⁻¹. Also, the “self-cleavage kobs at 10000 uM GlcN6P” value in data set [6] is 0.00102 ± 0.00014 s⁻¹.
As for U30A C50U, in data set [1], the kcat came out at 1.13e-05 ± 4.2e-06 s⁻¹.
With G13A U55G C71G, the catalytic constant (kcat) in data set [1] came out at 4.93e-05 ± 1.6e-05 s⁻¹. In data set [2], the “self-cleavage kobs at 40 uM GlcN6P” value was less than 1e-05 s⁻¹. The “self-cleavage kobs at 2500 uM GlcN6P” value in data set [4] turned out to be 7.49e-05 ± 2.8e-05 s⁻¹. In data set [6], the “self-cleavage kobs at 10000 uM GlcN6P” value worked out at 4.08e-05 ± 1.6e-05 s⁻¹.
G66C U69G: the kcat in data set [1] is 5.5e-05 ± 1.9e-05 s⁻¹. Further, the “self-cleavage kobs at 160 uM GlcN6P” value in data set [7] is 4.18e-05 ± 1.2e-05 s⁻¹. In addition, in data set [3], the “self-cleavage kobs at 640 uM GlcN6P” value is 8.02e-05 ± 1.2e-05 s⁻¹. Moreover, the “self-cleavage kobs at 2500 uM GlcN6P” value in data set [4] is 6.24e-05 ± 1.2e-05 s⁻¹.
Take U47C A64G: the kcat in data set [1] is 0.00525 ± 0.0013 s⁻¹. In data set [5], the KM came to 1890 ± 650 µM. Also, the “self-cleavage kobs at 40 uM GlcN6P” value in data set [2] was 0.000131 ± 1.7e-05 s⁻¹. Besides, in data set [7], the “self-cleavage kobs at 160 uM GlcN6P” value was found to be 0.000324 ± 9e-05 s⁻¹. The “self-cleavage kobs at 640 uM GlcN6P” value in data set [3] worked out at 0.00115 ± 0.00027 s⁻¹. Also, the “self-cleavage kobs at 2500 uM GlcN6P” value in data set [4] amounted to 0.0019 ± 0.00068 s⁻¹. Further, the “self-cleavage kobs at 10000 uM GlcN6P” value in data set [6] came out at 0.00499 ± 0.00066 s⁻¹.
As to G13C U47A G59U C67G, in data set [1], the catalytic constant (kcat) was 1.81e-05 ± 2.9e-06 s⁻¹. Moreover, in data set [3], the “self-cleavage kobs at 640 uM GlcN6P” value is less than 1e-05 s⁻¹.
Consider A52C C70U, for which the turnover number (kcat) in data set [1] was found to be 5.27e-05 ± 9.4e-06 s⁻¹. The “self-cleavage kobs at 2500 uM GlcN6P” value in data set [4] worked out at 5.72e-05 ± 1e-05 s⁻¹. Besides, the “self-cleavage kobs at 10000 uM GlcN6P” value in data set [6] came to 4.63e-05 ± 7.5e-06 s⁻¹.
For C11A U30A C50U, the catalytic constant (kcat) in data set [1] was determined as 2.21e-05 ± 3.2e-06 s⁻¹.

The values above are taken from the supplement of paper PMC7125110.
